From patent US20170037089A1 (IMMATICS BIOTECHNOLOGIES, published 2017)

Molecular target: T1, HLA-A*02 (peptide-receptive MHC class I monomer after UV-ligand exchange) (human)
T1 construct: also called HLA-A*02:01; HLA-A*0201
Test: UV-ligand exchange, b2m ELISA; peptide exchange yield grade (>=10% +; >=20% ++; >=50 +++; >=75% ++++)
Excerpt: Candidate peptides for T cell based therapies according to the present invention were further tested for their MHC binding capacity (affinity). The individual peptide-MHC complexes were produced by UV-ligand exchange, where a UV-sensitive peptide is cleaved upon UV-irradiation, and exchanged with the peptide of interest as analyzed. Only peptide candidates that can effectively bind and stabilize the peptide-receptive MHC molecules prevent dissociation of the MHC complexes. To determine the yield of the exchange reaction, an ELISA was performed based on the detection of the light chain (β2m) of stabilized MHC complexes. The assay was performed as generally described in Rodenko et al. (Rodenko et al., 2006).
96 well MAXISorp plates (NUNC) were coated over night with 2 ug/ml streptavidin in PBS at room temperature, washed 4× and blocked for 1 h at 37° C. in 2% BSA containing blocking buffer. Refolded HLA-A*02:01/MLA-001 monomers served as standards, covering the range of 15-500 ng/ml. Peptide-MHC monomers of the UV-exchange reaction were diluted 100 fold in blocking buffer. Samples were incubated for 1 h at 37° C., washed four times, incubated with 2 ug/ml HRP conjugated anti-32m for 1 h at 37° C., washed again and detected with TMB solution that is stopped with […]. Absorption was measured at 450 nm. Candidate peptides that show a high exchange yield (preferably higher than 50%, most preferred higher than 75%) are generally preferred for a generation and production of antibodies or fragments thereof, and/or T cell receptors or fragments thereof, as they show sufficient avidity to the MHC molecules and prevent dissociation of the MHC complexes.

peptide exchange yield	Binder
50 to 75%	YLLKDKGEYTL [YLLKDKGEYTL (SEQ ID No. 53)]
20 to 50%	TLLQVVGVVSV [TLLQVVGVVSV (SEQ ID No. 7)]
20 to 50%	YLNDSLRHV [YLNDSLRHV (SEQ ID No. 21)]
50 to 75%	TLWRGPVVV [TLWRGPVVV (SEQ ID No. 10)]
20 to 50%	YLEEECPAT [YLEEECPAT (SEQ ID No. 11)]
≥ 75%	SMLGEEIQL (also called GREB-001) [SMLGEEIQL (SEQ ID No. 2)]
≥ 75%	VTAQIGIVAV (also called OR51E2-001) [VTAQIGIVAV (SEQ ID No. 1)]

The next lines start with the binder.

Binder	peptide exchange yield
HLLEDIAHV (also called NEFH-001) [HLLEDIAHV (SEQ ID No. 3)]	≥ 75%
ALLTFVWKL (also called TRPM8-002) [ALLTFVWKL (SEQ ID No. 4)]	≥ 75%
KMDEASAQLLA [KMDEASAQLLA (SEQ ID No. 15)]	50 to 75%
SLLSHQVLL [SLLSHQVLL (SEQ ID No. 20)]	50 to 75%
KMDEASAQLL [KMDEASAQLL (SEQ ID No. 14)]	20 to 50%
KMDEASAQL [KMDEASAQL (SEQ ID No. 16)]	50 to 75%
ALGDLVQSV [ALGDLVQSV (SEQ ID No. 52)]	50 to 75%
GMLNEAEGKAIKL [GMLNEAEGKAIKL (SEQ ID No. 9)]	50 to 75%
SLFHPEDTGQV (also called KLK3-004) [SLFHPEDTGQV (SEQ ID No. 49)]	50 to 75%
AMAPNHAVV [AMAPNHAVV (SEQ ID No. 13)]	50 to 75%
SLYDSIAFI [SLYDSIAFI (SEQ ID No. 22)]	≥ 75%
ALLESRVNL (also called PDE11-001) [ALLESRVNL (SEQ ID No. 6)]	≥ 75%
KIFSRLIYI (also called TRPM8-003) [KIFSRLIYI (SEQ ID No. 5)]	50 to 75%
